According to article PMC9128377:
Where two headings read alike, the source gives them in different places.

How the values were obtained:
Assay in all cases: fluorescence anisotropy
[1] = biological target: T1, U2AF2 12L (RRM1-RRM2) (UniProt P26368 141-342)
[2] = biological target: U2AF2 12L K225N (UniProt P26368 141-342, K225N)
[3] = biological target: U2AF2 12L R227N (UniProt P26368 141-342, R227N)
[4] = biological target: T2, U2AF2 12L G297D (UniProt P26368 141-342, G297D)
[5] = biological target: T2, U2AF2 12L G297D; remark: listed apart in the source
[6] = biological target: T1, U2AF2 12L (RRM1-RRM2); remark: listed apart in the source
[7] = biological target: T1, U2AF2 12L (RRM1-RRM2); remark: listed apart in the source

T1 sequence (P26368 141-342): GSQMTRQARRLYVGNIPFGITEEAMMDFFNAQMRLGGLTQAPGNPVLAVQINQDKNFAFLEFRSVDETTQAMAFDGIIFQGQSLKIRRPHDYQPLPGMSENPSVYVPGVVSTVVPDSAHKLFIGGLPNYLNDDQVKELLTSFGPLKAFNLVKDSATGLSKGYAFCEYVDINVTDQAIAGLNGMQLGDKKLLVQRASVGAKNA
T2 sequence (P26368 141-342 G297D): as the sequence (P26368 141-342) above, with G157D counted along it
Chain of U2AF2 12L K225N (P26368 141-342 K225N): as the sequence (P26368 141-342) above, with K85N counted along it
Chain of U2AF2 12L R227N (P26368 141-342 R227N): as the sequence (P26368 141-342) above, with R87N counted along it

Binder	binding signal [2]	binding signal [3]	binding signal [4]	binding signal [7]	also measured
UUUUGUUUU (ssRNA) [U9 G5]	> 5 fold penalty	> 5 fold penalty	~2 fold penalty	–	binding signal [1]: < 2 fold Kd increase vs N5
UUUUCUUUU (ssRNA) [U9 C5]	–	–	–	–	binding signal [5]: ~2 fold penalty; binding result [6]: binds
UUUUUGUUU (ssRNA) [U9 G6]	–	–	–	~3 fold Kd increase vs N5	–
UUUUAUUUU (ssRNA) [U9 A5]	> 5 fold penalty	> 5 fold penalty	~2 fold penalty	–	–
UUUGUUUUU (ssRNA) [U9 G4]	–	–	–	~3 fold Kd increase vs N5	–
